The values below come from patent publication US20190077860A1 (EISAI R AND D MANAGEMENT, published 2019).

The target of experiment [1] is T1, human EphA4 extracellular region-SEAP-His protein (human, UniProt P54764 20-547).
T1 construct: also called hEphA4-SEAP-His
Put plainly: SPR (Biacore T200), human EphA4 extracellular region-SEAP-His captured on an anti-His antibody CM5 chip, antibody as analyte at 0.6-50 nM, 1:1 fit. As for the experimental part: Next, the binding affinity of antibody A-Fab and antibody A-F(ab′)₂ for mouse and human EphA4 was determined by surface plasmon resonance (SPR) using Biacore T200 (GE Healthcare). Antibody A obtained in Example 1 was used as a control for the comparison of each fragment. First, an anti-His tag antibody was immobilized on sensor chip CM5. The immobilization of the anti-His tag antibody on sensor chip CM5 was performed by the amine coupling method using N-hydroxysuccinimide (NHS) and N-ethyl-N′-(3-dimethylaminopropyl)carbodiimide hydrochloride (EDC). Ethanolamine was used in blocking (the sensor chip and the reagents for immobilization were all manufactured by GE Healthcare). The antibody was diluted with a buffer solution for immobilization (10 mM sodium acetate, pH 4.5) into 3 μg/mL and immobilized on the sensor chip according to the protocol attached to Biacore T200.
Mouse or human EphA4 extracellular region-SEAP-His protein was diluted with a running buffer solution HBS-EP (GE Healthcare, BR-1001-88), injected onto a flow cell for 120 seconds, and captured (amount of the protein captured: approximately 10 to 20 RU). Subsequently, antibody A (50, 16.7, 5.6, 1.9, 0.6, and 0 nM), antibody A-Fab (500, 166.7, 55.6, 18.5, 6.2, and 0 nM), or antibody A-F(ab′)₂ (50, 16.7, 5.6, 1.9, 0.6, and 0 nM) serially diluted using HBS-EP was added to the sensor chip for 120 seconds. Binding reaction curves were sequentially observed at the time of the addition (association phase, for 120 sec) and after the completion of the addition (dissociation phase, for 900 sec). After the completion of each observation, the sensor chip was regenerated by the addition of 3 M MgCl₂ (Wako Pure Chemical Industries) (for 30 sec). The obtained binding reaction curves were subjected to fitting analysis with 1:1 binding models using software BIA evaluation attached to the system to calculate the binding affinity (KD=kd/ka) for mouse and human EphA4.

Experiment [2] concerns the target mouse EphA4 extracellular region-SEAP-His protein (mouse). Nature of the experiment: competition ELISA, competitor biotinylated mouse Ephrin B2-Fc; alternative value in brackets. The protocol: Antibody A-Fab and antibody A-F(ab′)₂ obtained in Example 5 were evaluated for their inhibitory activity against the binding between EphA4 and its ligand according to the following steps. Each well of a 96-well plate (Nunc) was coated with an anti-alkaline phosphatase antibody (Thermo Fisher Scientific). After incubation overnight at 4° C., each well was blocked with 1% BlockAce (DS Pharma Biomedical) at room temperature for 1 hour. After washing with 0.05% Tween 20/PBS (Thermo Fisher Scientific) three times, the mouse EphA4 extracellular region-SEAP-His protein obtained by the method of Example 1 was added (final concentration: 10 nM) to each well and incubated at room temperature for 1 hour. After washing three times, a ligand and serially diluted antibody A (0, 0.003, 0.01, 0.03, 0.1, 0.3, 1, 3, 10, 30, 100, 300, 1000, and 3000 nM), antibody A-Fab (0, 0.003, 0.01, 0.03, 0.1, 0.3, 1, 3, 10, 30, 100, 300, 1000, and 3000 nM), antibody A-F(ab′)₂ (0, 0.003, 0.01, 0.03, 0.1, 0.3, 1, 3, 10, 30, 100, 300, 1000, and 3000 nM), or the EphA4 inhibitor KYL peptide ([…], 0, 0.0003, 0.001, 0.003, 0.01, 0.03, 0.1, 0.3, 1, 3, 10, 30, 100, 300, 1000, and 3000 μM, its synthesis was outsourced to Toray Research Center) were added to each well. […] The absorbance at 450 nm was read using a microplate reader (Molecular Devices or PerkinElmer). […]

In experiment [3] the target is T1, human EphA4 extracellular …. Put plainly: competition ELISA, competitor human Ephrin A5-Fc. The protocol: Antibody A obtained in Example 1 was evaluated for its inhibitory activity against the binding between human EphA4 and its human ligand according to the following steps. Each well of a 96-well plate (Nunc) was coated with an anti-alkaline phosphatase antibody (Thermo Fisher Scientific). After incubation overnight at 4° C., each well was blocked with 1% BlockAce (DS Pharma Biomedical) at room temperature for 1 hour. After washing with 0.05% Tween 20/PBS (Thermo Fisher Scientific) three times, the human EphA4 extracellular region-SEAP-His protein obtained by the method of Example 1 was added (final concentration: 10 nM) to each well and incubated at room temperature for 1 hour. After washing three times, ligands and serially diluted antibody A (0, 0.003, 0.01, 0.03, 0.1, 0.3, 1, 3, 10, 30, 100, 300, 1000, and 3000 nM) or an EphA4 inhibitor KYL peptide ([…], 0, 0.003, 0.01, 0.03, 0.1, 0.3, 1, 3, 10, 30, 100, 300, 1000, and 3000 μM, its synthesis was outsourced to Toray Research Center) were added to each well. The ligands used were biotinylated human Ephrin A5-Fc chimera (R&D Systems, final concentration: 0.7 nM) and biotinylated human Ephrin B3-Fc chimera (R&D Systems, final concentration: 2.3 nM). […] The absorbance at 450 nm was read using a microplate reader (Molecular Devices or PerkinElmer). […]

T1 sequence (P54764 20-547): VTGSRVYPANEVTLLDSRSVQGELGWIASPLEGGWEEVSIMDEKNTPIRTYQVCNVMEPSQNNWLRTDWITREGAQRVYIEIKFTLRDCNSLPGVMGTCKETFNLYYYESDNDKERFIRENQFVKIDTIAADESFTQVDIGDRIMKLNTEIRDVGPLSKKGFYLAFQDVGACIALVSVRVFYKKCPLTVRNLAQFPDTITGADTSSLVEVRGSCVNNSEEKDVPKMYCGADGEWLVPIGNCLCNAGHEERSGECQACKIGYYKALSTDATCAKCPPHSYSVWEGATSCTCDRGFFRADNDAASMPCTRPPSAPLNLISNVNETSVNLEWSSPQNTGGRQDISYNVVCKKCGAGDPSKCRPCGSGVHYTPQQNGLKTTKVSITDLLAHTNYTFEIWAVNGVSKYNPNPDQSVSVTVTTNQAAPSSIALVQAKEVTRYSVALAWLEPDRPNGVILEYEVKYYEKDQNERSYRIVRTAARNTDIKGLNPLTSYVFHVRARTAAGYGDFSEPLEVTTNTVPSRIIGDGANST
mouse EphA4 extracellular region-SEAP-His protein (mouse), sequence (chain, as listed by the source limits assumed): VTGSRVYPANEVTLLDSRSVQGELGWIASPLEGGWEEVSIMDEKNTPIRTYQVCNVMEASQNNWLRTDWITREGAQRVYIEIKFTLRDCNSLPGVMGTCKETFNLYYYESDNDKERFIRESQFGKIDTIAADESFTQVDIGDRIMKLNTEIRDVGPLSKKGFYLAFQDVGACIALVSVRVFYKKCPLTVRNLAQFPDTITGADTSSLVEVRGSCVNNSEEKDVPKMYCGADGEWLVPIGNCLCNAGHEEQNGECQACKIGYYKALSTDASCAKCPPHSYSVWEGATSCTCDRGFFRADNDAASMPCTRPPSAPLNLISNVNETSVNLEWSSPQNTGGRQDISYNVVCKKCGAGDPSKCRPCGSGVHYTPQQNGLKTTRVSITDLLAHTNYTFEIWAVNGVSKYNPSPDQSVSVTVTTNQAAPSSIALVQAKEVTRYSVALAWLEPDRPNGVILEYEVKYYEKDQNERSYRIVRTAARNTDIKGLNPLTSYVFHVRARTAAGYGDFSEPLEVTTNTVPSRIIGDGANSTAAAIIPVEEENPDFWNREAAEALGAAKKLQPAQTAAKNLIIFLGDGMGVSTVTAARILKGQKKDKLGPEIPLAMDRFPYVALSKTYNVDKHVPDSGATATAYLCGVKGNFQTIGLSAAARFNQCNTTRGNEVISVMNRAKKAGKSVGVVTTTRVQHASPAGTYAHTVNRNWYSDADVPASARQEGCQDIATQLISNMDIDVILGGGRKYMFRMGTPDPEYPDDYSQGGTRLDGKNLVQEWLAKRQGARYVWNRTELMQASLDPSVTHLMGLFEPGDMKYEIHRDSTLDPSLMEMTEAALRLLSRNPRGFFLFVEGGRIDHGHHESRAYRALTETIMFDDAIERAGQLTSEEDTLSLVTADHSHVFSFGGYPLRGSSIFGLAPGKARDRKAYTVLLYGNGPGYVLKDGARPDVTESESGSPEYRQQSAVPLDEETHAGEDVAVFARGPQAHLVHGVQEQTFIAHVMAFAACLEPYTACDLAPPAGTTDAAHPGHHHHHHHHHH

B1: antibody A (antibody, mouse IgG1, kappa, V domains shown)
VH: QIQLVQSGPELKKPGETVKISCKASGYTFTDYSMHWVKQAPGKGLKWMGWINTETGEPTYADDFKGRFAFSLETSASTAYLQINNLKNEDTATYFCARIPLYYYGSRYWYFDVWGAGTTVTVSS
VL: DIQMTQSPASLSVSVGETVTITCRASENIYRNLAWYQQKQGKSPQLLVYAATNLADGVPSRFSGSGSGTQYSLKINSLQSEDFGSYYCQHFWGTPWTFGGGTKLEIKR
notes: mouse IgG1 heavy chain, kappa light chain; purified from hybridoma supernatant; also called anti-EphA4 monoclonal antibody; antibody A-IgG
Turning to B1, in experiment [1], the equilibrium dissociation constant (Kd) is 0.144 nM, the koff came out at 0.000389 s⁻¹ and the on-rate (kon) was determined as 2.7e+06 M⁻¹ s⁻¹. Also, the IC50 in experiment [2] was found to be 3.6 nM. The molecule further gave an IC50 in experiment [3] of roughly 2.7 nM.
